Among the data in doi:10.1101/2021.08.02.453806 are fold CHK-2 pulled down, normalized, relative to truncated PPM-1.D values, retold here.

For this test, the target named is MBP-PPM-1.D-10xHIS (C. elegans). Put plainly: pull-down.

B1: GST-CHK-2-3xFLAG (enzyme)
chain: MVRGTKRRRSSAEKPIVVVPVTRDDTMPVDEDLVVGESQCAASKPFAKLVGVRRGISSIDLADDHFVCGRGSDDAPTNFNFSQVAKDVGLYRFISKIQFSIDRDTETRRIYLHDHSRNGTLVNQEMIGKGLSRELMNGDLISIGIPALIIFVYESADADHHPEELTKKYHVTSHSLGKGGFGKVLLGYKKSDRSVVAIKQLNTQFSTRCSRAIAKTRDIRNEVEVMKKLSHPNIVAIYDWITVAKYSYMVIEYVGGGEFFSKVVDSKYNRMGLGESLGKYFAFQLIDAILYLHSVGICHRDIKPENILCSDKAERCILKLTDFGMAKNSVNRMKTRCGTPSYNAPEIVANEGVEYTPKVDIWSLGCVLFITFSGYPPFSEEYTDMTMDEQVLTGRLIFHAQWRRITVETQNMIKWMLTVEPSNRPSAVELMSTQWMKCADCRTAKQDILKSIKPISAAAPAALQTTQAGPVKKAKM
Consider B1, for which the fold CHK-2 pulled down, normalized, relative to truncated PPM-1.D amounted to 20 fold.
